Legend:
CD163 = CD163 (Homo sapiens, UniProt Q86VB7); assay: Surface plasmon resonance (Biacore) analysis of mAb binding to immobilized CD163
Procedure: (§1) SPR analysis of the binding of mAbs to CD163 was carried out on a Biacore 2000 instrument (Biacore, Uppsala, Sweden). The Biacore sensor chips (type CM5) were activated with a 1:1 mixture of 0.2 M N-ethyl-N′-(3-dimethylaminopropyl) carbodiimide and 0.05 M N-hydroxysuccimide in water. Purified recombinant CD163 were immobilized in 10 mM sodium acetate, pH 4.0, and the remaining binding sites were blocked with 1 M ethanolamine, pH 8.5. The SPR signal generated from immobilized recombinant CD163 proteins corresponded to 40-70 fmol of protein/mm^2. Sensorgrams were generated using mAb concentrations ranging from 5-100 nM. The flow cells were regenerated with 1.6 M glycine-HCl, pH 3. The running buffer used for the experiment was either CaHBS 10 mM Hepes, 150 mM NaCl, 3.0 mM CaCl2, 1.0 mM EGTA, and 0.005% Tween 20, […], and 0.005% Tween 20, pH 7.4, mAb samples were dissolved in the same buffer as the running buffer used. All binding data were analyzed using the Biamolecular Interaction Analysis evaluation program version 3.1.
as §1, with “7.4, KN2/NRY and Mac-158” for “7.4, mAb”, “buffer used at a concentration of 5 μg/ml.” for “buffer used.”

[1] = target: T1, mouse CD163 1-5 LKIHDK-->VKVQEE, Y60R mutant (Mus musculus, UniProt Q2VLH6, D69E/H68Q/I67V/K70E/L65V/Y111R); assay: Western blotting of mouse CD163 and knock in mutant; type: binding
T1 construct: A mutant (LKIHDK-->VKVQEE, Y60R) in domain 1 of mouse CD163 1-5; host or cells: Lenti-X 293T, transient; captured from supernatant on Ni-NTA
T1 sequence (Q2VLH6 39-577 L65V/I67V/H68Q/D69E/K70E/Y111R): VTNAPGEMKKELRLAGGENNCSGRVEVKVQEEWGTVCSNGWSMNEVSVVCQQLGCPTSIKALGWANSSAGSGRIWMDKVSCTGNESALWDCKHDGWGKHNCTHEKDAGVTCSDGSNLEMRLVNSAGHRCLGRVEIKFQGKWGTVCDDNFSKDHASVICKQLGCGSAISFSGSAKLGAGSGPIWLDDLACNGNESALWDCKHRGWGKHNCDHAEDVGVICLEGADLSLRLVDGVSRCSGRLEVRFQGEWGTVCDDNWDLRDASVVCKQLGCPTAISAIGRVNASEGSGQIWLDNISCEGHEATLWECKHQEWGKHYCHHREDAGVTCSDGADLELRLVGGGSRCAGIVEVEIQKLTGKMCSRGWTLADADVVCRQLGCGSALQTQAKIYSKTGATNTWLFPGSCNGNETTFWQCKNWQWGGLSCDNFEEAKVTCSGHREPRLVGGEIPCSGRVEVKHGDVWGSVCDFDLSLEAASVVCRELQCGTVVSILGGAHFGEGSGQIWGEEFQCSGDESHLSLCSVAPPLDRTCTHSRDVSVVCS
Procedure: CD163 domain 1-5 was used for expression of mouse CD163 domain 1-5/V5/His. A mutant (LKIHDK-->VKVQEE, Y60R) in domain 1 of mouse CD163 1-5 was ordered as midiprep at GenScript (Piscataway, N.J., USA). Sequences DNA and protein of mutants are show below (mutant only domain 1).
The mouse CD163 1-5 and the mouse CD163 domain 1 mutant were expressed transient in Lenti-X 293T cells as follows: 1.5 μg of the DNA was diluted in OptiCHOPro SFM (8 mM L-glutamine) to a total volume of 50 μl The DNA was gently mixed with 50 μl of OptiCHOPro SFM containing 1.5 μl Freestyle MAX transfection reagent (Invitrogen, Taastrup, Denmark). After 10 min of incubation at room temperature the complexes were added to 1×10^6 cells in 1 ml. Three days later, the cell supernatants were harvested by centrifugation.
Tris pH 8 buffer, and cell culture supernatants were added 60 μl of Ni-NTA His-bind resin slurry. After 1 hour shaking at 4° C. the supernatants were aspired and each of the purifications were eluted with 90 μl 50 mM Tris pH 8, 25 mM EDTA buffer.
90 μl of each of the eluates were added 30 μl of 4×LDS sample buffer. 20 μl samples of each supernatant and 8 μl SeeBlue plus2 prestained marker were loaded on NuPage 4-12% Bis-Tris-Gels (Invitrogen, Taastrup, Denmark) and the SDS-PAGEs were run with MOPS running buffer according to instructions of the manufacturer (200 V constant for 50 min). […]

Chain of CD163 (Q86VB7 42-1156): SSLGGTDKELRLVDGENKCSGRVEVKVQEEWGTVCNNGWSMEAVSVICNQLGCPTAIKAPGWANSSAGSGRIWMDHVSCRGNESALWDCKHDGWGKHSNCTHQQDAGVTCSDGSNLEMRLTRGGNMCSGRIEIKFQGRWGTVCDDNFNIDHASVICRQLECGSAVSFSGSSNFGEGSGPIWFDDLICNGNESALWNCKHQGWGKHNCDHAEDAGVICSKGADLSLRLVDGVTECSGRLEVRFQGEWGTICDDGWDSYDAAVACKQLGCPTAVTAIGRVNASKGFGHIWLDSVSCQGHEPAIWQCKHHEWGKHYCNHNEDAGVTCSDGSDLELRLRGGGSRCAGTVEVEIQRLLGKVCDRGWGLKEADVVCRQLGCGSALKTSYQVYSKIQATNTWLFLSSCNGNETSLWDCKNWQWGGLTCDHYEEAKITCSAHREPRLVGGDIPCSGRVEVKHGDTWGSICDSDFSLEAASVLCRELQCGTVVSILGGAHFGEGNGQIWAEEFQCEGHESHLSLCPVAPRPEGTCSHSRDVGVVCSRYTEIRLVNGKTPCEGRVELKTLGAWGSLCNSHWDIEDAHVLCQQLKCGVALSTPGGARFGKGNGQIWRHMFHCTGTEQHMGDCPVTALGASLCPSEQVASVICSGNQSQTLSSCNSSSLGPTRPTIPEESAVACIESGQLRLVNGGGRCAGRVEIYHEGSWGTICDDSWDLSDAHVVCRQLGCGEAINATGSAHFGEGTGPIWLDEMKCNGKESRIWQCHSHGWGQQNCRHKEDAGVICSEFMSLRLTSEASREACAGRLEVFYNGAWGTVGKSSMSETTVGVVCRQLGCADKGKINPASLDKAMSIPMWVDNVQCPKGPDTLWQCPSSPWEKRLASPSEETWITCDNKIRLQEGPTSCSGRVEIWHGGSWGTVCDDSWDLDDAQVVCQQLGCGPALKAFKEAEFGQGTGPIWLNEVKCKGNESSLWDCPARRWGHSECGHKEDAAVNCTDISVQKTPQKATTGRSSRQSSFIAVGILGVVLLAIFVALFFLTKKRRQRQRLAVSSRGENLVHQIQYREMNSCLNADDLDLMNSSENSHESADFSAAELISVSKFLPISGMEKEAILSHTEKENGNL

B1: MAC2-158: anti-human CD163 murine mAb, binds SRCR domain 1, IQ Products; VH SEQ ID NO: 1, VL SEQ ID NO: 2 (antibody, V domains shown)
VH: DVQLQESGPGLVKPSQSLSLTCTVTGYSITSDYAWNWIRQFPGNKLEWMGYITYSGITNYNPSLKSQISITRDTSKNQFFLQLNSVTTEDTATYYCVSGTYYFDYWGQGTTLTVSS
VL: SVVMTQTPKSLLISIGDRVTITCKASQSVSSDVAWFQQKPGQSPKPLIYYASNRYTGVPDRFTGSGYGTDFTFTISSVQAEDLAVYFCGQDYTSPRTFGGGTKLEIKRA
modifications: Mac2-158 VH; Mac2-158 VL
In the case of B1, the “affinity for human CD163 immobilized on a Biacore chip” value (CD163; KN2/NRY compared with Mac2-158, 5 μg/ml, FIG. 19) is reported as “Virtually similar affinities”, the “strength of binding to CD163 in Biacore studies” value (CD163; comparison between mAbs) is reported as “high affinity” and the “affinities for CD163” value (CD163; in both 2 mM free Ca2+ and 10 mM EDTA) is reported as “nanomolar or sub-nanomolar range”. The “calcium dependence of binding activity in SPR-analysis” value (CD163; with/without calcium) was “binding activity regardless extracellular levels of calcium” and the “binding in western blot” value [1] was “did bind”.

Reference: patent publication US20170119790A1, “Agents, Uses and Methods” (CYTOGUIDE A/S, priority 2009, published 2017)
